Laboratory results reported in PMC3072108 (Cell, 2011).

B1: UBC-domain of Ube2S (domain or fragment)
chain: MNSNVENLPPHIIRLVYKEVTTLTADPPDGIKVFPNEEDLTDLQVTIEGPEGTPYAGGLFRMKLLLGKDFPASPPKGYFLTKIFHPNVGANGEICVNVLKRDWTAELGIRHVLLTIKCLLIHPNPESALNEEAGRLLLENYEEYAARARLLTEIHG
B2: Ube2S (enzyme, UniProt Q16763 1-222, looked up)
chain: MNSNVENLPPHIIRLVYKEVTTLTADPPDGIKVFPNEEDLTDLQVTIEGPEGTPYAGGLFRMKLLLGKDFPASPPKGYFLTKIFHPNVGANGEICVNVLKRDWTAELGIRHVLLTIKCLLIHPNPESALNEEAGRLLLENYEEYAARARLLTEIHGGAGGPSGRAEAGRALASGTEASSTDPGAPGGPGGAEGPMAKKHAGERDKKLAAKKKTDKKRALRRL

Target: ubiquitin (UniProt P0CG48 1-76)
Experiment: NMR titration

| Binder | Kd [µM] |
| --- | --- |
| B1 | 1110 ± 80 |
| B2 | 1700 ± 80 |
